Data from the RNAGym collection of RNA variant scans (doi:10.1073/pnas.2313332121).
Variants at the floor of the assay were thinned out.

B1: TPR 5TU (parent)
chain: GGAUCUUCUCGAUCUAACAAAAAAGACAAAUCUGCCACAAAGCUUGAGAGCAUCUUCGGAUGCAGAGGCGGCAGCCUUCGGUGGCGCGAUAGCGCCAACGUUCUCAACUAUGACACGCAAAACGCGUGCUCCGUUGAAUGGAGUUUAUCAUG

Variants of: B1
Test: polymerase ribozyme fitness, log enrichment relative to wild type (log ratio); higher = more active; in vitro selection for triplet polymerase activity
Procedure, shortened: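 To select mutant libraries of each subunit of a heterodimeric triplet polymerase ribozyme, built by PCR and transcribed, each was annealed with a biotinylated primer, partner subunit and triplets, then incubated frozen at −7 °C. Extended constructs were gel-excised, captured on streptavidin beads and amplified by RT-PCR, in one round carried out in triplicate. Illumina sequencing of input and output libraries kept genotypes with ≥10 input reads and ≥1 read per output. Fitness is the base-2 logarithm of genotype enrichment relative to wild-type enrichment, from inverse-variance-weighted replicate averages.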

Variant | polymerase ribozyme fitness (log ratio)
A40G C105U A115U A138G | ≤ -4.2
A39U C54U U55G C93U C103U | ≤ -4.2
A40C A52U G68C C85A G128C | ≤ -4.2
A40C C96U | -0.579
A40G A41G U53G C85A U127G C131U G143A | ≤ -4.2
A40C U144A | -0.312
A39U C69U C75U G84U U127G | ≤ -4.2
A40G U56A | -1.21
A40C G83C | 0.449
A39U C79G G84U | ≤ -4.2
A40G A91G A115G C116G A142C | ≤ -4.2
A39U A41U U56A G71A | ≤ -4.2
A40C C76U C95A C131G G141U | -1.68
A40C A41C A49C A91U | ≤ -4.2
A40G G81A G88C | ≤ -4.2
A39U U78A G83A G84C A115U U134C G136U | ≤ -4.2
A40C U55G G58A U130A U135C | ≤ -4.2
A40G G50U U56A G83C | -4.02
A39U A52G G74U U90A A122G C125G C129U | ≤ -4.2
A40G U90G C95A G112C U127C | ≤ -4.2
A40C G50A A60U G88U G92C C95G G100U | ≤ -4.2
A40C C51A G86C U139C | ≤ -4.2
A40G G42U G74C | ≤ -4.2
A39U G117U | -1.04

Variant | polymerase ribozyme fitness (log ratio)
A40C A89U | 0.433
A40G A60C U61A G81C U90G G94A C123A U139A | ≤ -4.2
A39U A60U G81A C85A C93U | ≤ -4.2
A40G C116G A120U | -1.72
A40C A52C G83A | -2.55
A40G C87U | -1.53
A39U A60G A137U | -4.19
A40G C63G C85U U145A | -2.16
A39G U55A C96A A97U | -3.27
A40U A49C C72A C95U C99G A138C | ≤ -4.2
A39G G94C | -2.32
A40U A41C A49G C96A | -1.32
A40G C96U | -1.81
A40C A60U | 0.0412
A40G A73U A89G C93G U104G A106G U134A | ≤ -4.2
A40G A47G U144G | -2.26
A39U C43U C85U G117U G126C C132G | ≤ -4.2
A39U C43A C75G C87U C118U | ≤ -4.2
A39U A49C A137G | ≤ -4.2
A39U G80C A91U | ≤ -4.2
A40C C95U | -0.646
A40C U56A G128C | -3.92
A39U G59C G83U | -2.72
A40C A41C G59A G70U G84A C85A C105G G141C G143U | ≤ -4.2

Variant | polymerase ribozyme fitness (log ratio)
A40U A41C C96U | -0.566
A40C A98U A122U | 0.766
A40C A52G C79A C85U C99A A106G A142U G152U | ≤ -4.2
A40C G46A A91G U104G A119G U148G | ≤ -4.2
A39U U44A C79G C132G U139A | ≤ -4.2
A39G U55G G84A U135G | ≤ -4.2
A40G A52U A91C C108U G143C U148A | ≤ -4.2
A40C A52G U82A G92U A106U | -3.38
A39G U77G | ≤ -4.2
A40U C54U G71U C95A U146C G152A | ≤ -4.2
A39U U45C C93U | ≤ -4.2
A40C C75G C85A G141U | ≤ -4.2
A40G U77G G80A C93A A107G A120C A121U | ≤ -4.2
A40C G50A C72U U78C C87U | ≤ -4.2
A40C G50C C79U G81C C118U | ≤ -4.2
A39U U55A G83U C95G A115C C149G | ≤ -4.2
A39G G59A C96G U146C | -3.67
A40G C85G U111G U151C | ≤ -4.2
A40C U148A | -3.51
A39U G50U G83A C96G C103U U135G | ≤ -4.2
A39U G71C G84A C103U | ≤ -4.2
A39U U55G G88A U104A U135A U144C C149A | ≤ -4.2
A40C C76G U151A | ≤ -4.2
A40G G143A | -2.88

Variant | polymerase ribozyme fitness (log ratio)
A40G G58C C87A C103G A110U U135A | ≤ -4.2
A39G G42C A47C A91U C93U U101G A119U C125U G133U G136A | ≤ -4.2
A40G U45A A47C C99U A115C G124C | ≤ -4.2
A39G G80U C95U C116G | -3.6
A39G G80A G126U A138G | ≤ -4.2
A39G G59C U104A | -3.12
A40G A52G A91C A119U G128A | ≤ -4.2
A39U U45G C85A A91C G92C | ≤ -4.2
A40C A49U C57A C76A U82C G94U | ≤ -4.2
A39G G59C G71A U101C A115G G140U | ≤ -4.2
A40U A47C A66C C76U C93A A98G C99G U104C A150U | ≤ -4.2
A40C U44A A60G C69U C72U G83C U104A U127G G152A | ≤ -4.2
A40C G50A | -2.43
A40U A89C C114U | -2.95
A39G G141C | -2.65
A39G G88A A142U | ≤ -4.2
A40C U135A | -0.385
A39G U53A C87U A115C | -3.83
A40U A60C | -1.31
A39U A122G U145G | -2.48
A40C G42C C69G C85A U104G G128C G133A | ≤ -4.2
A40G U82G | -1.38
A40C G92C | -1.84
A40C U44A G59A C93A U109A | ≤ -4.2

Variant | polymerase ribozyme fitness (log ratio)
A39G G59A C116U U144C | -4.19
A40C U56A C57U G140C | -3.75
A40C A98G C131U U134A | -2.13
A40C G92A U109C G141U | ≤ -4.2
A39U A64U C87G | ≤ -4.2
A40C U55A U104C | -0.475
A40U A107U C132G | ≤ -4.2
A40U A49C | ≤ -4.2
A40C C85A G92U A119C A147C | ≤ -4.2
A39G G86C U109C G128U G140C | ≤ -4.2
A39G G42A G88C | ≤ -4.2
A39U A52U C76G G83A | ≤ -4.2
A39G G62A G94A A120U G143U | ≤ -4.2
A39U C51G U55G U61G C85U C99U | ≤ -4.2
A39U U44C U53A G62U G86A | ≤ -4.2
A40C A41U C99U C125A | -2.04
A39U U53A A91G A97G U111G | -4.05
A40C G68U G86A C103G | ≤ -4.2
A39U C85G C96A A107G | ≤ -4.2
A39U G86A | -3.06
A40C G143A | -0.684
A40C G42A A49G G62C C93A | ≤ -4.2
A39U C76A G86C G126A C132U U134A | ≤ -4.2
A40C C131G | -3.13

Variant | polymerase ribozyme fitness (log ratio)
A40G G117A | -3.18
A40G A73G G86A | -4.16
A39G U77A G143C | ≤ -4.2
A39U U53C C108G C149U | ≤ -4.2
A40C A41C G58C A91U G124A C125A | ≤ -4.2
A40G C95A U104G A142G | -3.8
A39U U139A | -3.87
A39U G46A C93G A119U U139G | ≤ -4.2
A40G G94C | -1.82
A40G C57A C72U C87A | ≤ -4.2
A40C G70A | -2.97
A40G A115G A137G C149U | -4.02
A40G U55A C76G G81A G86U C149U | ≤ -4.2
A40G C85U C118A | -2.77
A39G U45A A49U U61A C75U G83U C129G U144G | ≤ -4.2
A40C G48C G81U C85A | -1.52
A39U A91C G141C U148G | ≤ -4.2
A40C U82G A89G | 0.203
A40C A119C | 0.851
A40G C149A | -3.98
A39G G83A G141C | -3.09
A40C A49C U56A A60C G84A G136A | ≤ -4.2
A39U C69U C95U C129G | ≤ -4.2
A40G C87G C103A G117U | ≤ -4.2

Variant | polymerase ribozyme fitness (log ratio)
A39U U53A C75G G86U U146G | ≤ -4.2
A40G G48C A49C | ≤ -4.2
A39G G48A C51U U56C G59U A150C | ≤ -4.2
A40U A122C | 0.0565
A40U A106G C131U | 1.54
A39U U77G G124C U135G U146A | ≤ -4.2
A40C C63U U82G G83C C96G A120C A121U U144A | -0.868
A40C G42A A52C G94C C99U | ≤ -4.2
A40U A47C A89U U134G | -2.3
A40G A41C C43A G83C C87G C96A | ≤ -4.2
A40C A97C | 1.5
A40C A97U | -0.185
A40C U134A | -1.77
A40C G83A A97G | -1.2
A39U C76A G83U C125U | ≤ -4.2
A40G A52C G83U A98C | -3.64
A40G C75G | -4.09
A40G U45A U56A A60G G71C C118G | ≤ -4.2
A40G U56G C85A A115U U134C | -4.09
A39U G100A A110G A150U | ≤ -4.2
A40U A137U G140C | -4.19
A39U G42C U77C C85A C95G | ≤ -4.2
A40C G84A U90G G100C | ≤ -4.2
